This is an account of results in the DeepSol protein solubility set.

The series can be described thus: soluble on expression in E. coli; label from the status in PepcDB or PDB records.
“MSLQTPMQTVDDLRSVCDELPHSLETFPFDDETLVFKVGYLSKSRMYALTDITQDPLRLSLKVDPERGEELRQAHPQSIAPGYHLNKKHWVTVTLDGTVPAELLGELLRGSYLLVTKKGFTKAERKELGLPDSLEGGSHHHHHH”: the “soluble on expression in E. coli” value was “soluble”. As to “MSLQVSLNPEWLARNNDEHKIRRNDHRSPFQRDRARILHSAAFRRLQAKTQVHGTSLNDFHRTRLTHSLEAAQIGTGIVAQIKLKQPEFRELLPSDSLIDSLCLAHDIGHPPYGHGGEIALNYMMRDHGGFEGNAQTFRIVTSLEPYTEHHGMNLSRRTLLGLLKYPALLSATRAAIPPPAVAHQRQLKAKDWSPAKGIYDCDLASLDWVLEPLCESDRELLGQMRAEPSSPKEHRKTRFKSLDCSIMELADDIAYGVHDLEDAIVLGMVTRAQWQEAAAAQLAECGDPWFEEHIAELSEMLFSGKHYVRKDAIGGIVNALLTSISVKPVEAPFHNELLAFNAYIEPHMGNALEVLKHFVSQYVIQIPQVQRFEYKGQQLIMDLFEALSADPERLLPQATGEKWRKAQEQDEGMRVICDYIAAMTDAYAQRLHQQLFSAQSHYEGGSHHHHHH”, the “soluble on expression in E. coli” value is reported as “soluble”. Under “MSLRDKKGPVNKRVDFLSNKLNKYSIRKFTVGTASILIGSLMYLGTQQEAEAAENNIENPTTLKDNVQSKEVKIEEVTNKDTAPQGVEAKSEVTSNKDTIEHEASVKAEDISKKEDTPKEVANVAEVQPKSSVTHNAEAPKVRKARSVDEGSFDITRDSKNVVESTPITIQGKEHFEGYGSVDIQKNPTDLGVSEVTRFNVGNESNGLIGALQLKNKIDFSKDFNFKVRVANNHQSNTTGADGWGFLFSKGNAEEYLTNGGILGDKGLVNSGGFKIDTGYIYTSSMDKTEKQAGQGYRGYGAFVKNDSSGNSQMVGENIDKSKTNFLNYADNSTNTSDGKFHGQRLNDVILTYVASTGKMRAEYAGKTWETSITDLGLSKNQAYNFLITSSQRWGLNQGINANGWMRTDLKGSEFTFTPEAPKTITELEKKLKRFHSRKNVNLIRIEGHHHHHH” stands “not soluble”; under “MSLRDKQKIKTKLIPEKDEGEGKYRIGLYIRDSAAGIGTMTFYEPKTKKYGALGHVISDMDTKKPIVVENGEIVKSTVTSIEKGTGGNPGEKLARFSSERKTIGDINRNSPFGIFGTLHQPIQNNISDQALPVAFSTEVKKGPAEILTVIDDDKVEKFDIEIVSTTPQKFPATKGMVLKITDPRLLKETGGIVQGMSGSPIIQNGKVIGAVTHVFVNDPTSGYGVHIEWMLSEAGIDIYGKEKASEGHHHHHH”, “soluble”; under “MSLREYIKEGIKLAVTNIPEDVVSAIREALEREESKIAKYNLEMILKAIDISRKEGIPVCQDTGTPIFFVRTNGPINKIYDEIVKGVEIATREVPLRPNALHVLDGKVIGNVPEVHFEPGKETLISILMKGGGSENCTALFPLTPAEGLEGVKNKVIEHVQSCGGKPCPPIIVGIGIASPAEKAIILAKKALLRRISERHPNEKLAKFERELLEEINSLGIGPMGLGGRTTALDVKVEVETRHPASYIVGVVIQCWAHRRAFIKVSEGGVKIWQEGGSHHHHHH”, “soluble”.

On to “MSLRFIDKLYQANLGKLTAGISPAALGTAYYSWFAQLLQSPGSMLRLAYYPLLHANDYLSNLFKYDKPRDGKDVRFHTENWSYYPWRLWAEQFLQFEDWCLQASSKVPGIPLHVKRTVTFSTRQILDALSPSNFVLTNPDLLQETIRSNGQNLIRGTELAFQDFVEKITGSPPAGVENFIPGKQVAVTEGKVVYSNHLIELIQYTPQTEKVYKEPILILPAWIMKYYILDLLPENSLVNWLVRQGHTVFIVSWRNPTKEDRNIGLDDYYKLGAMDAINAVSNAIPHTKIHLMGYCLGGTLALLTAAAMAHDHDNRLKTLSLLAAQGDFIDAGELLLFITKSEVSFLKSMMWEQGYLDTKQMSGTFQMLRSYDLIWSKMVQDYMHGTQRGMIPLLAWNADATRMPYKMHSEYLEKLFLNNDFAEGRFILDGKPVVGENIRMPAFVVSTEKDHVAPWKSVYKTHLLINSDITFVLTNGGHNAGIVSEPGHEGRYYRIRERKMDSTYLDPTNWLKKAELREGSWWIAWHDWLVNHSSQKQVSAPKLDKNLPNAPGKYVLQKEGHHHHHH”, for which the “soluble on expression in E. coli” value is “not soluble”.
